Measurements taken from publication PMC11702068, “NEK8 promotes the progression of gastric cancer by reprogramming asparagine metabolism” (Molecular Medicine, 2025).

Biological target: T1, His-NEK8 (UniProt Q86SG6 1-692)
T1 construct: NEK8 (NIMA-related kinase 8); also called His-tagged NEK8; source: E. coli BL21, purified (Ni-NTA agarose)
T1 sequence (looked up): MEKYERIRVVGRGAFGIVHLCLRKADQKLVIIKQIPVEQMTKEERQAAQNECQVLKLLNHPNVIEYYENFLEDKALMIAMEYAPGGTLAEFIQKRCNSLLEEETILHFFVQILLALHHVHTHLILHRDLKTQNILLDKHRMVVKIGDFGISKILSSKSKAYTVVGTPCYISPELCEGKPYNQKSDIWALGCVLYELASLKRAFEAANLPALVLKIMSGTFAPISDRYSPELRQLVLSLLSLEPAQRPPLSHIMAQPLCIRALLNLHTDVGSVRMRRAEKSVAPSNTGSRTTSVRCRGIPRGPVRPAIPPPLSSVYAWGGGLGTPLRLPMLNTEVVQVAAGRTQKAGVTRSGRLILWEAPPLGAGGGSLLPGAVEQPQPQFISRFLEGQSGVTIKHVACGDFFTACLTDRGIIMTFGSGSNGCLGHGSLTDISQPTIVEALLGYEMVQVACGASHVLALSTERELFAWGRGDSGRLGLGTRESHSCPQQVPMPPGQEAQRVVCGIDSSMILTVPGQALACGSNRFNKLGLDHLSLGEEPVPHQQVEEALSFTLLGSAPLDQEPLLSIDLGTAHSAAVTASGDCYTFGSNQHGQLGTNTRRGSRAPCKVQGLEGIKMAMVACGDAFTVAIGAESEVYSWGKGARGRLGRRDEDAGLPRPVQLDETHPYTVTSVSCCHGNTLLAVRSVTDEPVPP
Test: pull-down; GST affinity isolation: GST-tagged NEK8 or ASNS proteins on glutathione-Sepharose 4B beads incubated with His-tagged ASNS or NEK8 at 4 °C for five hours; wash with GST binding buffer (2 mM EDTA, 50 mM NaF, 100 mM NaCl, 1% NP-40); immunoblotting
Conditions: both partners purified

B1: GST-ASNS full-length (enzyme, UniProt P08243 1-561, looked up)
chain: MCGIWALFGSDDCLSVQCLSAMKIAHRGPDAFRFENVNGYTNCCFGFHRLAVVDPLFGMQPIRVKKYPYLWLCYNGEIYNHKKMQQHFEFEYQTKVDGEIILHLYDKGGIEQTICMLDGVFAFVLLDTANKKVFLGRDTYGVRPLFKAMTEDGFLAVCSEAKGLVTLKHSATPFLKVEPFLPGHYEVLDLKPNGKVASVEMVKYHHCRDVPLHALYDNVEKLFPGFEIETVKNNLRILFNNAVKKRLMTDRRIGCLLSGGLDSSLVAATLLKQLKEAQVQYPLQTFAIGMEDSPDLLAARKVADHIGSEHYEVLFNSEEGIQALDEVIFSLETYDITTVRASVGMYLISKYIRKNTDSVVIFSGEGSDELTQGYIYFHKAPSPEKAEEESERLLRELYLFDVLRADRTTAAHGLELRVPFLDHRFSSYYLSLPPEMRIPKNGIEKHLLRETFEDSNLIPKEILWRPKEAFSDGITSVKNSWFKILQEYVEHQVDDAMMANAAQKFPFNTPKTKEGYYYRQVFERHYPGRADWLSHYWMPKWINATDPSARTLTHYKSAVKA
notes: asparagine synthetase (ASNS), full-length (FL); also called FL
Does B1 bind?
Result: binds
